{
  "source": "patent US20190060366A1",
  "about": "“HIGHLY ENGRAFTABLE HEMATOPOIETIC STEM CELLS” (President and Fellows of Harvard College, priority 2016, published 2019)",
  "molecules": {"B1": {"name": "G-CSF: hematopoietic growth factor used clinically to mobilize HSC and HPC; comparator regimen (protein, UniProt P09919 31-207, looked up)", "Granulocyte …": "TPLGPASSLPQSFLLKCLEQVRKIQGDGAALQEKLVSECATYKLCHPEELVLLGHSLGIPWAPLSSCPSQALQLAGCLSQLHSGLFLYQGLLQALEGISPELGPTLDTLQLDVADFATTIWQQMEELGMAPALQPTQGAMPAFASAFQRRAGGVLVASHLQSFLEVSYRVLRHLAQP"}},
  "key": {"CD34+ cells": {"tested_on": "CD34+ cells", "conditions": "cited from earlier work"}, "[1]": {"tested_on": "peripheral blood mononuclear cells (PBMCs)", "assay": "Limiting dilution competitive transplants and secondary transplants of mobilized grafts", "type": "in vivo", "conditions": "secondarily transplanted mice; n=16 mice/group, P<0.01"}},
  "data": [
    {"molecule": "B1", "values": [
      {"measurement": "patients that fail to mobilize an optimal CD34+ cell dose for autologous transplantation", "setting": "CD34+ cells; autologous transplantation patients", "value": "Up to 60%"},
      {"measurement": "poor mobilization in response to G-CSF, share of normal, healthy donors", "setting": "CD34+ cells; normal, healthy donors", "value": 15, "unit": "%"},
      {"measurement": "competitiveness of graft as measured by contribution to chimerism", "setting": "[1]", "value": "remained static"}
    ]}
  ]
}
